Assay results taken from patent US20220380801A1, “TRIPARTITE SYSTEMS FOR PROTEIN DIMERIZATION AND METHODS OF USE” (priority 2019, published 2022).

Columns and labels:
[1] = system: split Nanoluciferase (LgBiT/SmBiT) reconstitution in HEK293 cells; experiment: Split NanoLuc reconstitution assay (NanoBiT); assay type: cell-based, human; conditions: 100 nM simeprevir over no simeprevir; LgBiT fused to the C-terminus of the PRSIM binding module
Procedure: The ability of the PRSIM binding molecules to promote dimerization of two proteins to which they are fused was assessed with the NanoBiT system (Promega) that measures the reconstitution of a split Nanoluciferase (NanoLuc) and the resultant luminescence upon supply of a live cell imaging Nano-Glo NanoLuc substrate (FIG. 8). In the NanoBiT system, one interaction partner is fused via a flexible linker to an 18 kDa fragment of NanoLuc termed LgBiT (for “large bit”) (SEQ ID NO: 16) and the other is fused via an equivalent linker to a 1.3 kDa peptide SmBiT (“small bit”) (SEQ ID NO: 17). LgBit and SmBiT have a low affinity (190 μM) for each other in the absence of interacting partners and will not reconstitute to form an active luciferase enzyme. Once fused to the interacting proteins of a CID and supplied with inducer, they will reconstitute, and luminescence can be measured. The NanoBiT system supplies two sets of control proteins fused to LgBiT and SmBiT: a set of constitutively interacting proteins PRKAR2A:PRKACA; and the FRB:FKBP12 pair whose dimerization can be induced with rapamycin.
To establish the optimal orientation of the HCV NS3/4A PR (S139A) and PRSIM components, constructs whereby HCV NS3/4A PR (S139A) was fused at either the N- or C-terminus to SmBiT (SEQ ID NOs: 18 and 19, respectively) and a parallel set of constructs for each PRSIM binding module fused to either the N- or C-terminus of LgBiT (SEQ ID NOS: 20-30 and 31-41, respectively). The NanoBiT kit (Promega) supplies a set of vectors enabling these constructs to be generated. DNA strings encoding HCV NS3/4A PR (S139A) and the PRSIM molecules were purchased from GeneArt and amplified via PCR with primers with extensions containing restriction sites compatible with the NanoBiT vectors and were cloned via Gibson assembly. All constructs were verified via Sanger sequencing of the entire coding sequence.
All NanoBiT screens were performed in adherent HEK293 cells cultured in 96-well plates. Cells enzymatically dissociated from a tissue culture flask were counted and plated at 2×10^4 cells/well in a white, opaque-bottomed 96-well plate (Costar 3917). The plates were incubated overnight at 37° C. with 5% CO2 to allow the cells to adhere. On day 2, plasmids were co-transfected with Lipofectamine LTX (ThermoFisher) at a final concentration of 100 ng/well (50 ng/plasmid, one encoding a SmBiT fusion, the other a LgBiT fusion). On day 3, wells were treated with 100 nM of the appropriate small molecule inducer (rapamycin (FRB:FKBP12) or simeprevir (HCV NS3/4A PR:PRSIM)) or vehicle control, and luminescence was quantified with an Envision plate reader immediately following addition of Nano-Glo Live Cell Substrate (Promega).

HCV NS3/4A PR D168E = experiment: Biacore 8K binding kinetics, mutant protease to PRSIM_23; design: species or system Hepatitis C virus subtype 1a; conditions: 20 nM simeprevir
Procedure: (§1) The scFv and Tn3 PRSIM binding molecules were covalently immobilised to a CM5 chip surface using standard amine coupling techniques at a concentration of 1 μg/ml in 10 mM sodium acetate pH 4.5.
(§2) The HCV NS3/4A PR (S139A), or BSA control, was diluted 1:4 (1.25-20 nM)±10 nM simeprevir in 10 mM Hepes pH 7.4, 150 mM NaCl, 0.05% Surfactant P20, 0.01% DMSO, ensuring constant simeprevir and DMSO concentration. The samples were flowed over the chip at 50 μl/min using single cycle kinetics, with 120 sec association and 600 sec dissociation. The chip surface was regenerated with two 20 sec pulses of 10 mM Glycine-HCl pH 3.0. The final sensorgrams were analysed using the Biacore 8K Evaluation Software and the affinity constant KD was determined using a 1:1 binding model. The same method was used for measuring the affinity of the HCV NS3/4A PR mutants for PRSIM_23 with minor deviations. The mutants were diluted 1:4 (2.5-40 nM)±simeprevir in 10 mM Hepes pH 7.4, 150 mM NaCl, 0.05% Surfactant P20, 0.08% DMSO, ensuring constant simeprevir and DMSO concentration. The samples were flowed over the chip at 50 μl/min using single cycle kinetics, with 180 sec association and 600 sec dissociation.

HCV NS3/4A PR K136D = experiment: as above; design: species or system Hepatitis C virus subtype 1a
Procedure: as §1, §2

HCV NS3/4A PR K136N = experiment: as above; design: species or system Hepatitis C virus subtype 1a
Procedure: as §1, §2

| Molecule | fold-change in luminescence [1] [fold] | Rmax (HCV NS3/4A PR D168E) [RUs] | ka (HCV NS3/4A PR D168E) [M⁻¹ s⁻¹] | kd (HCV NS3/4A PR D168E) [s⁻¹] | decrease in affinity for PRSIM_23 compared to ‘Wt’ (HCV NS3/4A PR K136D; K136D versus ‘WT’ (S139A)) | Rmax (HCV NS3/4A PR K136D; K136D, 800 nM simeprevir) [RUs] | ka (HCV NS3/4A PR K136D; K136D, 800 nM simeprevir) [M⁻¹ s⁻¹] | kd (HCV NS3/4A PR K136D; K136D, 800 nM simeprevir) [s⁻¹] | decrease in affinity for PRSIM_23 compared to ‘Wt’ (HCV NS3/4A PR K136N; K136N versus ‘WT’ (S139A)) | Rmax (HCV NS3/4A PR K136N; K136N, 40 nM simeprevir) [RUs] | ka (HCV NS3/4A PR K136N; K136N, 40 nM simeprevir) [M⁻¹ s⁻¹] | kd (HCV NS3/4A PR K136N; K136N, 40 nM simeprevir) [s⁻¹] |
| --- | --- | --- | --- | --- | --- | --- | --- | --- | --- | --- | --- | --- |
| PRSIM_33: Tn3 PRSIM binding molecule, SEQ ID NO: 7 (protein, PRSIM_33) RLDAPSQIEVKDVTDTTALITWYPPGRWYDDIWYFELTYGIKDVPGDRTTIKLARGDDVYSIGNLKPDTEYEVSLISWGPDRGDRAGSNPAKITFKTGL | 9 |  |  |  |  |  |  |  |  |  |  |  |
| PRSIM_57: scFv specific for HCV NS3/4A PR (S139A):simeprevir complex, SEQ ID NO: 12 (protein, PRSIM_57) scFv: QVQLVQSGAEVKKPGSSVKVSCKASGGTFSSYAISWVRQAPGQGLEWMGGIIPIFGTANYAQKFQGRVTITADESTSTAYMELSSLRSEDTAVYYCARHTNYITVFDYWGQGTLVTVSSGGGGSGGGGSGGGGSAQSVLTQPPSASGTPGQRVTISCSGSSSNIGSNTVNWYQQLPGTAPKLLIYSNNQRPSGVPDRFSGSKSGTSASLAISGLQSEDEADYYCAAWDHHWEQVVFGGGTKLTVL | 14 |  |  |  |  |  |  |  |  |  |  |  |
| PRSIM_23: Tn3 protein specific for HCV NS3/4A PR (S139A):simeprevir complex, SEQ ID NO: 5 (protein, PRSIM_23) RLDAPSQIEVKDVTDTTALITWVDPRYDDIWWFELTYGIKDVPGDRTTIKLYLNDPYYSIGNLKPDTEYEVSLISYTGDSYSRSGSNPAKITFKTGL | 31 | 199 | 1.47e+09 | 21.4 | 6-7 fold | 168 | 1.69e+10 | 373 | 6-7 fold | 198 | 5.31e+08 | 20.4 |
